Experimental data reported in paper PMC7515635 (eLife, 2020).
Values joined by “and” are separate entries in the source; they are usually repeats but may differ in a detail not shown here. Equal entries are not always repeated.

T1: HIS6-ATG8A (Arabidopsis thaliana, UniProt Q8LEM4 1-117)
T1 construct: ATG8A, Arabidopsis thaliana; source: E. coli Rosetta2(DE3)pLysS, purified (HisTrap, ion exchange, SEC)
T1 sequence (looked up): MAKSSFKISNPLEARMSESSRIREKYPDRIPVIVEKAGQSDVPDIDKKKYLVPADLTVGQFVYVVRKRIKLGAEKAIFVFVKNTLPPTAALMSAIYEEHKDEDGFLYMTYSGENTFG

B1: HIS6-AtC53 (natural protein)
chain: not shown
notes: C53, Arabidopsis thaliana; Monomeric by native MS; source: E. coli Rosetta2(DE3)pLysS, purified (HisTrap, ion exchange, SEC)
B2: AtC53-IDR (purified) (domain or fragment, Arabidopsis thaliana, UniProt Q9FG23 264-341, looked up)
chain: ANGTDAAADSIDWDITVETPEIDWDVSMVEEVDSGNDLGSYEIVNASDIPENSPFKVEESQGLEVDVSEISWDVSVET
notes: intrinsically disordered region of Arabidopsis C53; The expected mass (about 80 residues) is too small for 239-372, the limits of MBP-AtC53^IDR; source: E. coli Rosetta2(DE3)pLysS, purified
B3: At-sAIM peptide (peptide)
peptide: EPLDFDIDWDLEEEM
notes: peptide with a shuffled AIM (IDWD) in the frame of the AIM wt peptide
B4: Hs-sAIM peptide (peptide)
peptide: EPLDFDIDWGLEEEM
notes: peptide with a shuffled AIM (IDWG) in the frame of the AIM wt peptide; also called Hs-sAIMC53
B5: GST-GABARAP (natural protein, human, UniProt O95166 1-117, looked up)
chain: MKFVYKEEHPFEKRRSEGEKIRKKYPDRVPVIVEKAPKARIGDLDKKKYLVPSDLTVGQFYFLIRKRIHLRAEDALFFFVNNVIPPTSATMGQLYQEHHEEDFFLYIAYSDESVYGL
notes: GABARAP, human ATG8 isoform; printed MW of GST-GABARAP 42458.87 Da; source: E. coli recombinant expression; bacterial lysate (pull-downs), recombinant protein (SPR); not shown: GST, N-terminal, kept
B6: GST-ATG8A (natural protein, Arabidopsis thaliana, UniProt Q8LEM4 1-117, looked up)
chain: T1 sequence (looked up)
notes: ATG8A, Arabidopsis thaliana; printed MW of GST-ATG8A 42366.85 Da; also called AtATG8; source: E. coli recombinant expression; bacterial lysate (pull-downs), recombinant protein (SPR, peptide array); not shown: GST, N-terminal, kept

Columns and labels:
Settings in all cases: both partners purified
HIS6-ATG8A [1] = molecular target: T1, HIS6-ATG8A; experiment: native MS; proteins exchanged into ammonium acetate, nanoelectrospray, Synapt G2Si; C53 1-5 µM or IDR 2.5 µM with 5-20 µM ATG8A or GABARAP
HIS6-ATG8A [2] = molecular target: T1, HIS6-ATG8A; experiment: ITC; 25°C, 50 mM sodium phosphate pH 7.0, 100 mM NaCl; cell 40 µM GABARAP or ATG8A, syringe 600 µM peptide or 250 µM IDR; one-set-of-sites model
HIS6-GABARAP = molecular target: T2, HIS6-GABARAP (human, UniProt O95166 1-117); experiment: as above
T2 construct: GABARAP, human ATG8 isoform; source: E. coli Rosetta2(DE3)pLysS, purified (HisTrap, ion exchange, SEC)

HIS6-HsC53 = molecular target: T3, HIS6-HsC53 (human, UniProt Q96JB5 1-506); experiment: SPR; competition, apparent; GST-GABARAP or GST-ATG8A captured; increasing AIM wt peptide premixed with 10 µM HsC53 or AtC53; 25°C, 50 mM sodium phosphate pH 7.0, 100 mM NaCl, 0.05% Tween-20, 0.1% BSA
T3 construct: C53 (CDK5RAP3), human; Monomeric by native MS; source: E. coli Rosetta2(DE3)pLysS, purified (HisTrap, ion exchange, SEC)
T3 sequence (Q96JB5 whole entry): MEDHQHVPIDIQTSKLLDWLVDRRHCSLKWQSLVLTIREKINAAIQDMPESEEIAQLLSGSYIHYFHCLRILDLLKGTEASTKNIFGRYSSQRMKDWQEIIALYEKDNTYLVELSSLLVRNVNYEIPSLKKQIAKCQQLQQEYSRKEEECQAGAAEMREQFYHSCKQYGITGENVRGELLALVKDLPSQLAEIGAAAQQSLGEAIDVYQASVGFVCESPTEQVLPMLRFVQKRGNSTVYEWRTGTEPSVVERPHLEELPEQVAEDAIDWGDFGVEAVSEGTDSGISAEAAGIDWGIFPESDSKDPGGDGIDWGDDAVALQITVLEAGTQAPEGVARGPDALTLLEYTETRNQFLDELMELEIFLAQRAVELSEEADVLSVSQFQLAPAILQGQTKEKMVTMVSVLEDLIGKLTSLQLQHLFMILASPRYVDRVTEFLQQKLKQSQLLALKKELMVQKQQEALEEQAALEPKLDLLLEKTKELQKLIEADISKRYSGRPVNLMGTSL

HIS6-AtC53 = molecular target: B1; experiment: as above
HIS6-AtC53, sequence (Q9FG23 whole entry): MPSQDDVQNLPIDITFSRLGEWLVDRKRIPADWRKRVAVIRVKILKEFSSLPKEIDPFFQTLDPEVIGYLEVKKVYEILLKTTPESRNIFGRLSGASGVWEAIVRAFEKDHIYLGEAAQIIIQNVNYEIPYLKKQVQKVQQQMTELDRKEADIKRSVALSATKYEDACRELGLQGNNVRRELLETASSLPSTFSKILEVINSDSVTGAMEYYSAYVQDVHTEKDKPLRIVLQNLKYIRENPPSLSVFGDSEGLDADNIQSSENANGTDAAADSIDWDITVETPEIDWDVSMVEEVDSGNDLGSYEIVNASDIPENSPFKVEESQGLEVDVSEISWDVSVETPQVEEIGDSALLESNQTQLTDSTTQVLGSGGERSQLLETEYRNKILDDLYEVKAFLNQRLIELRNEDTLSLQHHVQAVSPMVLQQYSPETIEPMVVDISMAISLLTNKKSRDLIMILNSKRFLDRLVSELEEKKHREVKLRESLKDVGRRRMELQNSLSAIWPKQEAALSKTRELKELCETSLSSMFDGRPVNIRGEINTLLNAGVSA

B1
stoichiometry N (HIS6-ATG8A [1]): 1 ATG8A per AtC53 and 2 ATG8A per AtC53

B2
stoichiometry N (HIS6-ATG8A [1]): 1 ATG8A per AtC53-IDR and 2 ATG8A per AtC53-IDR and 3 ATG8A per AtC53-IDR

B3
binding result (HIS6-ATG8A [2]): binds

B4
binding result (HIS6-GABARAP): binds

B5
binding result (HIS6-HsC53): binds

B6
binding result (HIS6-AtC53): binds
